Literature values, collected in publication PMC3103538.

Columns and labels:
Cterm32 = Cterm32 (UniProt position 280, KKLVGER----)
Lys8 = Lys8 (UniProt position 256, KQLEDKVEELL)
Glu11 = Glu11 (UniProt position 259, EDKVEELLSKN)
Glu6 = Glu6 (UniProt position 254, SMKQLEDKVEE)
Glu10 = Glu10 (UniProt position 258, LEDKVEELLSK)
Glu22 = Glu22 (UniProt position 270, YHLENEVARLK)
Lys3 = Lys3 (UniProt position 251, KLQSMKQLEDK)
Lys15 = Lys15 (UniProt position 263, EELLSKNYHLE)
His18 = His18 (UniProt position 266, LSKNYHLENEV)
Asp7 = Asp7 (UniProt position 255, MKQLEDKVEEL)
Lys28 = Lys28 (UniProt position 276, VARLKKLVGER)
Lys27 = Lys27 (UniProt position 275, EVARLKKLVGE)
Nterm0 = Nterm0 (UniProt position 248, RARKLQRMKQL)
Glu20 = Glu20 (UniProt position 268, KNYHLENEVAR)
Glu32 = Glu32 (UniProt position 280, KKLVGER----)
Tyr17 = Tyr17 (UniProt position 265, LLSKNYHLENE)

GCN4 leucine zipper (33-residue fragment, GCN4p1-type) (Saccharomyces cerevisiae; R1S; insertion of Gly0 before residue 1 (Arg1 substituted by the dipeptide Gly0-Ser1))
pKa (Cterm32): 4.03
pKa (Lys8): 11.26
pKa (Glu11): 4.05
pKa (Glu6): 4.6
pKa (Glu10): 3.94
pKa (Glu22): 4.2
pKa (Lys3): 10.78
pKa (Lys15): 10.62
pKa (His18): 6.24
pKa (Asp7): 3.48
pKa (Lys28): 10.64
pKa (Lys27): 11.1
pKa (Nterm0): 7.88
pKa (Glu20): 4.38
pKa (Glu32): 4.62
pKa (Tyr17): 9.82
